Data from US20100159475.

Assays:
[1] = tested on: T1, Fluoresceinyl-DLDVPIPGRFDRRVpSVAAE (phosphorylated, fluorescein-tagged RII peptide)
T1 sequence: DLDVPIPGRFDRRVSVAAE

[2] = tested on: autoinhibitory peptide

Recombinant calcineurin
amount of dephosphorylated peptide in the unbound fraction after titanium oxide (mass spectrometry) [1]: 30-fold increase in the amount of dephosphorylated peptide in the unbound fraction with the addition of recombinant calcineurin | dephosphorylation of the peptide (fluorimetric calcineurin assay) [1]: Calcineurin in normal buffer resulted in dephosphorylation of the peptide in a dose-dependent manner | relative amount of dephosphorylated to phosphorylated peptide (mass spectrometry) [1]: recombinant calcineurin stimulated a dose-responsive increase in the relative amount of dephosphorylated to phosphorylated peptide | dephosphorylation by 0.2 ng calcineurin (fluorimetric calcineurin assay) [2]: Dephosphorylation by 0.2 ng calcineurin was significantly reduced (ANOVA) by each of these conditions
